Laboratory results published in article PMC5087439, “One Step Assembly of Thin Films of Carbon Nanotubes on Screen Printed Interface for Electrochemical Aptasensing of Breast Cancer Biomarker”.

Target: MUC1 (mucine) (UniProt P15941 24-1097)
Experiment: electrochemical impedance spectroscopy (aptamer immobilized on electrode); 2 mM [Fe(CN)6]4-/3- redox probe; 1 mM Mg2+; observed (apparent) Kd, stated as about 0.1 U/mL; Binding buffer pH 7.4: 1 mM MgCl2, 140 mM NaCl, 2.7 mM KCl, 0.1 mM Na2HPO4, 1.8 mM KH2PO4; 45 min incubation; temperature not stated

MUC1 (mucine), sequence (P15941 24-1097): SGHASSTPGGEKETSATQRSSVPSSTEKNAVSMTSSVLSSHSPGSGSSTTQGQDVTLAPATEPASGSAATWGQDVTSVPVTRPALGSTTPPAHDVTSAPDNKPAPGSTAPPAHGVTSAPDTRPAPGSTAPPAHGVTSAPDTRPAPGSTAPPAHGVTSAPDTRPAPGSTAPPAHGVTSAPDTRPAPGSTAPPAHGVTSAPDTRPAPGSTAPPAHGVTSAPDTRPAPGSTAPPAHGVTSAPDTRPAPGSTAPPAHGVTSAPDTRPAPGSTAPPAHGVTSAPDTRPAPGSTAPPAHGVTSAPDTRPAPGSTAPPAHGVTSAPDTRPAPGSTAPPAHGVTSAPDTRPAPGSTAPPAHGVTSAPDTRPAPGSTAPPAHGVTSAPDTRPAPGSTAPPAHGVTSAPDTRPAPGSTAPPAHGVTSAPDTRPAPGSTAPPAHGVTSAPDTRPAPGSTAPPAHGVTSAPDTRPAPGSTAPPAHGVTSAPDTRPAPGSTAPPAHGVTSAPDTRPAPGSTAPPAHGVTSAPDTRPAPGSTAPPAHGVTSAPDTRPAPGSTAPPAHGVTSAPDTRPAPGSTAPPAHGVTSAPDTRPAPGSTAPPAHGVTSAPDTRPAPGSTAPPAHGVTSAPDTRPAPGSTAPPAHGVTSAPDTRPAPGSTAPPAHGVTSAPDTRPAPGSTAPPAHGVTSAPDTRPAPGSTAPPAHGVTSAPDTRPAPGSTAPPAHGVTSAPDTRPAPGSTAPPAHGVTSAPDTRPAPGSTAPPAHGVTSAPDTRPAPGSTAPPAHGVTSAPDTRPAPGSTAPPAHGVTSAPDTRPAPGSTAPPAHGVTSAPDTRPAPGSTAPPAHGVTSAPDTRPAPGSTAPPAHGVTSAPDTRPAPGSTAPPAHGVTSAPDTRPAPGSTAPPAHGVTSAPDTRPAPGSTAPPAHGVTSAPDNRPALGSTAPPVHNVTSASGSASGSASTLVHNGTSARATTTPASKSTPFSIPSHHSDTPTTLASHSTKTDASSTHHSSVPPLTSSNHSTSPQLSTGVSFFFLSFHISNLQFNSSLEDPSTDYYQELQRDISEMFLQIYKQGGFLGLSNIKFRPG

Which Kd does the source give for GCAGTTGATCCTTTGGATACCCTGG (ssDNA, 3'-NH2) [MUC1 aptamer] here?
The Kd was 0.63 µM.
